This is an account of results in patent US20190175744A1, “INSULIN-INCRETIN CONJUGATES” (Merck Sharp & Dohme Corp., priority 2016, published 2019).

In assay [1] the target is human insulin receptor (IR), CHO cell line overexpressing human IR (pAkt assay) (human) (UniProt P06213). Description: cell-based or functional assay.
Assay [2] concerns the target minipig insulin receptor (IR) (minipig). Nature of the assay: cell-based or functional assay.

With Insulin degludec (ligand), in assay [1], the Insulin Receptor pAK Assay EC50, Human was determined as 0.48 nM. In assay [2], Insulin levemir (ligand) yielded an Insulin Receptor pAK Assay EC50, Minipig of 0.5 nM. The substance also came in with an Insulin Receptor pAK Assay EC50, Human in assay [1] of 0.51 nM.
